The source of these data is US20200002415A1 (published 2020).

In assay [1] the target is T1, Recombinant FcγRIIA-131H/H allotype (generated at MedImmune) (human, UniProt P12318 34-217, limits assumed).
T1 construct: ELISA coating protein; also called human FcγRIIA; CD32A
T1 sequence: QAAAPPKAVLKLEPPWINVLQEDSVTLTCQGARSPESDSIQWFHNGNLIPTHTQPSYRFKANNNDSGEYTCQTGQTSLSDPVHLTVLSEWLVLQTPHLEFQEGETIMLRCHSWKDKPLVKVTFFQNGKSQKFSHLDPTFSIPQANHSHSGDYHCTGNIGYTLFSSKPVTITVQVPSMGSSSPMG
The experiment in a line: ELISA on coated recombinant FcγRIIA-131H/H. As for the experimental part:
Plates were washed five times with 200 μl of wash buffer (PBS containing 0.1% Tween 20), blocked with blocking buffer containing 5% milk in PBS for 1 hour at room temperature, and washed five additional times with wash buffer. Three-fold serial dilutions of the test antibody or control antibody (R347-Tm) were added to wells in duplicate. Plates were incubated for 2 hours at room temperature, and washed five times with wash buffer. Binding of the antibodies to the FcγRs was detected by adding 50 μl of goat anti-human Fc-HRP (Jackson ImmunoResearch Laboratories, PA) to the wells and incubating for 1 hour at room temperature, washing 10 times, and adding 50 μl TMB substrate (Pierce Biotechnology, MA). The color reaction was stopped with 50 μl 0.2M […] and the absorbance was measured using a spectrophotometer (Molecular Devices, CA) at […].
In general terms: In an ELISA, binding on a coated surface is turned into a signal by an enzyme label.

Assay [2] has as its target T2, human FcγRIIA 131R on blood cells of 131R/R donors (human, UniProt P12318 34-317).
T2 chain: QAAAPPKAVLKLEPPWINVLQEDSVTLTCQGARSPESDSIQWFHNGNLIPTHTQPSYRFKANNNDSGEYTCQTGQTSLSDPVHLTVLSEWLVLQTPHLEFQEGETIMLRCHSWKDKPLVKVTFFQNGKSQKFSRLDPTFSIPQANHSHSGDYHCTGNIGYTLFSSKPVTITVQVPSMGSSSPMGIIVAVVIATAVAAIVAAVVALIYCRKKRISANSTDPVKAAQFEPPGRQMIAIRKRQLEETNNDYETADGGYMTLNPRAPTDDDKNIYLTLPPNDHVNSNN
As to the kind of experiment: cell-based or functional assay.

B1: 32LO0350 (antibody, human IgG1, V domains shown)
VH: QVQLVQSGAEVKKPGASVKVSCKASGYTFTNYGMNWVRQAPGQRLEWMGWLNTYTGESWYPDDFKGRVTITRDTSASTAYMELSSLRSEDTAVYYCARGDYGYDDPLDYWGQGTLVTVSS
VL: DIVMTQSPLSLPVTPGEPASISCRSSKSLLHTNRNTYLHWFLQKPGQSPQLLIYRMSVLASGVPDRFSGSGSGTDFTLKISRVEAEDVGVYYCMQHLEYPLTFGQGTKLEIK
notes: expressed as human IgG1-TM with human kappa light chain; also called optimized IV.3 clone 32LO0350
As for B1, the binding result in assay [1] is listed as “binds”.

B2: 32LO0355 (antibody, human IgG1, V domains shown)
VH: QVQLVQSGAEVKKPGASVKVSCKASGYTFTNYGMNWVRQAPGQRLEWMGWLNTYTGESWYPDDFKGRVTITRDTSASTAYMELSSLRSEDTAVYYCARGDYGYDDPLDYWGQGTLVTVSS
VL: DIVMTQSPLSLPVTPGEPASISCRSSKSLLHTNKNTYLHWFLQKPGQSPQLLIYRMSVLASGVPDRFSGSGSGTDFTLKISRVEAEDVGVYYCMQHLEYPLTFGQGTKLEIK
notes: expressed as human IgG1-TM with human kappa light chain; also called optimized IV.3 clone 32LO0355
As to B2, in assay [1], the binding result was “binds”.

B3: 32LO0354 (antibody, human IgG1, V domains shown)
VH: QVQLVQSGAEVKKPGASVKVSCKASGYTFTNYGMNWVRQAPGQRLEWMGWLNTYTGESYYPDDFKGRVTITRDTSASTAYMELSSLRSEDTAVYYCARGDYGYDDPLDYWGQGTLVTVSS
VL: DIVMTQSPLSLPVTPGEPASISCRSSKSLLHTNRNTYLHWFLQKPGQSPQLLIYRMSVLASGVPDRFSGSGSGTDFTLKISRVEAEDVGVYYCMQHLEYPLTFGQGTKLEIK
notes: expressed as human IgG1-TM with human kappa light chain; also called optimized IV.3 clone 32LO0354
As for B3, the binding result in assay [1] is given as “binds”.

B4: chimeric IV.3 (human IgG1-TM) (antibody, V domains shown)
VH: QIQLVQSGPELKKPGETVKISCKASGYTFTNYGMNWVKQAPGKGLKWMGWLNTYTGESIYPDDFKGRFAFSSETSASTAYLQINNLKNEDMATYFCARGDYGYDDPLDYWGQGTSVTVSS
VL: DIVMTQAAPSVPVTPGESVSISCRSSKSLLHTNGNTYLHWFLQRPGQSPQLLIYRMSVLASGVPDRFSGSGSGTAFTLSISRVEAEDVGVFYCMQHLEYPLTFGAGTKLELK
Regarding B4, in assay [2], the “EC50 of FcγRIIA internalization from the monocyte surface, whole blood FACS assay” value turned out to be 0.2 nM.
